Assay results published in IntAct's records for PubMed 31515488.

B1: KAT8 regulatory NSL complex subunit 1 (Homo sapiens), Q7Z3B3 (parent)
chain: MAAMAPALTDAAAEAHHIRFKLAPPSSTLSPGSAENNGNANILIAANGTKRKAIAAEDPSLDFRNNPTKEDLGKLQPLVASYLCSDVTSVPSKESLKLQGVFSKQTVLKSHPLLSQSYELRAELLGRQPVLEFSLENLRTMNTSGQTALPQAPVNGLAKKLTKSSTHSDHDNSTSLNGGKRALTSSALHGGEMGGSESGDLKGGMTNCTLPHRSLDVEHTTLYSNNSTANKSSVNSMEQPALQGSSRLSPGTDSSSNLGGVKLEGKKSPLSSILFSALDSDTRITALLRRQADIESRARRLQKRLQVVQAKQVERHIQHQLGGFLEKTLSKLPNLESLRPRSQLMLTRKAEAALRKAASETTTSEGLSNFLKSNSISEELERFTASGIANLRCSEQAFDSDVTDSSSGGESDIEEEELTRADPEQRHVPLRRRSEWKWAADRAAIVSRWNWLQAHVSDLEYRIRQQTDIYKQIRANKGLIVLGEVPPPEHTTDLFLPLSSEVKTDHGTDKLIESVSQPLENHGAPIIGHISESLSTKSCGALRPVNGVINTLQPVLADHIPGDSSDAEEQLHKKQRLNLVSSSSDGTCVAARTRPVLSCKKRRLVRPNSIVPLSKKVHRNSTIRPGCDVNPSCALCGSGSINTMPPEIHYEAPLLERLSQLDSCVHPVLAFPDDVPTSLHFQSMLKSQWQNKPFDKIKPPKKLSLKHRAPMPGSLPDSARKDRHKLVSSFLTTAKLSHHQTRPDRTHRQHLDDVGAVPMVERVTAPKAERLLNPPPPVHDPNHSKMRLRDHSSERSEVLKHHTDMSSSSYLAATHHPPHSPLVRQLSTSSDSPAPASSSSQVTASTSQQPVRRRRGESSFDINNIVIPMSVAATTRVEKLQYKEILTPSWREVDLQSLKGSPDEENEEIEDLSDAAFAALHAKCEEMERARWLWTTSVPPQRRGSRSYRSSDGRTTPQLGSANPSTPQPASPDVSSSHSLSEYSHGQSPRSPISPELHSAPLTPVARDTPRHLASEDTRCSTPELGLDEQSVQPWERRTFPLAHSPQAECEDQLDAQERAARCTRRTSGSKTGRETEAAPTSPPIVPLKSRHLVAAATAQRPTHR
partner: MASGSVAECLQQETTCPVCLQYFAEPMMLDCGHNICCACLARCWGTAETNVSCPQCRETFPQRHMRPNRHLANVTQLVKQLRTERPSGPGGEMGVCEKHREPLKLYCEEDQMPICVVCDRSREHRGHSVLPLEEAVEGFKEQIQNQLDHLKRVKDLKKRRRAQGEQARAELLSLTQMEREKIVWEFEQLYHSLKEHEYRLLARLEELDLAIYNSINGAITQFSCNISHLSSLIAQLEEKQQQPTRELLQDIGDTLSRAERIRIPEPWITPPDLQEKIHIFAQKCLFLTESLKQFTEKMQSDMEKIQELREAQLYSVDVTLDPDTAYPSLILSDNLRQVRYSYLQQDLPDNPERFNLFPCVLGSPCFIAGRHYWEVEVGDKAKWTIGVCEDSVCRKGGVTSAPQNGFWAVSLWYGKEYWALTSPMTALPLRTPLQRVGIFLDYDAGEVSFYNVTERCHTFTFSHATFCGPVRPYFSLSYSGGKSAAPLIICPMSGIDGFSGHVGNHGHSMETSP
B2: E3 ubiquitin-protein ligase TRAIP (Homo sapiens), Q9BWF2 (parent)
chain: MPIRALCTICSDFFDHSRDVAAIHCGHTFHLQCLIQWFETAPSRTCPQCRIQVGKRTIINKLFFDLAQEEENVLDAEFLKNELDNVRAQLSQKDKEKRDSQVIIDTLRDTLEERNATVVSLQQALGKAEMLCSTLKKQMKYLEQQQDETKQAQEEARRLRSKMKTMEQIELLLQSQRPEVEEMIRDMGVGQSAVEQLAVYCVSLKKEYENLKEARKASGEVADKLRKDLFSSRSKLQTVYSELDQAKLELKSAQKDLQSADKEIMSLKKKLTMLQETLNLPPVASETVDRLVLESPAPVEVNLKLRRPSFRDDIDLNATFDVDTPPARPSSSQHGYYEKLCLEKSHSPIQDVPKKICKGPRKESQLSLGGQSCAGEPDEELVGAFPIFVRNAILGQKQPKRPRSESSCSKDVVRTGFDGLGGRTKFIQPTDTVMIRPLPVKPKTKVKQRVRVKTVPSLFQAKLDTFLWS
B3: NF-kappa-B inhibitor delta (Homo sapiens), Q8NI38 (parent)
chain: MEAGPWRVSAPPSGPPQFPAVVPGPSLEVARAHMLALGPQQLLAQDEEGDTLLHLFAARGLRWAAYAAAEVLQVYRRLDIREHKGKTPLLVAAAANQPLIVEDLLNLGAEPNAADHQGRSVLHVAATYGLPGVLLAVLNSGVQVDLEARDFEGLTPLHTAILALNVAMRPSDLCPRVLSTQARDRLDCVHMLLQMGANHTSQEIKSNKTVLHLAVQAANPTLVQLLLELPRGDLRTFVNMKAHGNTALHMAAALPPGPAQEAIVRHLLAAGADPTLRNLENEQPVHLLRPGPGPEGLRQLLKRSRVAPPGLSS
partner: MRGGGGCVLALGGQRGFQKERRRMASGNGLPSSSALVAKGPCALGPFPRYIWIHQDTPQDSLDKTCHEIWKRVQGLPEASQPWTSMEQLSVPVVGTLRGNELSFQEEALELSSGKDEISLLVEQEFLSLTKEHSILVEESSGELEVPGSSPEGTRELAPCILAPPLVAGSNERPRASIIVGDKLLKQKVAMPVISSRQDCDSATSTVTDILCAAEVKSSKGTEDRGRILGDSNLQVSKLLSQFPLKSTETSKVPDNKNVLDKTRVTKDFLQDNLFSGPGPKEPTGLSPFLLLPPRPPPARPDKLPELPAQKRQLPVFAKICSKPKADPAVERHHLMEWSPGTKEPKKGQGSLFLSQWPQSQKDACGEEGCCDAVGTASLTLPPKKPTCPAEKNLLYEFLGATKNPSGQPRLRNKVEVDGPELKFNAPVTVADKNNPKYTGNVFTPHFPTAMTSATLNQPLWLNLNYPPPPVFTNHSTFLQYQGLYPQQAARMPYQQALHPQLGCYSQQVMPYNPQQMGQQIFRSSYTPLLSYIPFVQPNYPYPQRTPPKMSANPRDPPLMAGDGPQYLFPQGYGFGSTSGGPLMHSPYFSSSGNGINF
B4: Glutathione S-transferase Mu 5 (Homo sapiens), P46439 (parent)
chain: MPMTLGYWDIRGLAHAIRLLLEYTDSSYVEKKYTLGDAPDYDRSQWLNEKFKLGLDFPNLPYLIDGAHKITQSNAILRYIARKHNLCGETEEEKIRVDILENQVMDNHMELVRLCYDPDFEKLKPKYLEELPEKLKLYSEFLGKRPWFAGDKITFVDFLAYDVLDMKRIFEPKCLDAFLNLKDFISRFEGLKKISAYMKSSQFLRGLLFGKSATWNSK
partner: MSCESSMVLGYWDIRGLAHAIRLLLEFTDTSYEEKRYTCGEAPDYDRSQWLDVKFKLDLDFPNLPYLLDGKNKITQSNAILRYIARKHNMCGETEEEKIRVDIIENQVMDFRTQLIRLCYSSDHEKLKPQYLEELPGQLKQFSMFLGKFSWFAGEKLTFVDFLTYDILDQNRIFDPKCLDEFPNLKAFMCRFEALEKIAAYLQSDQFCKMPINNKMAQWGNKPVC

Variants of: B1
Details: with tri27_human TRIM27, P14373

Row | Variant | effect of a mutation on the interaction
1 | K104T | with no effect
2 | N225D | with no effect

Variants of: B2
Details: with mare2_human MAPRE2, Q15555
Sequence of mare2_human MAPRE2, Q15555 (Q15555 whole entry): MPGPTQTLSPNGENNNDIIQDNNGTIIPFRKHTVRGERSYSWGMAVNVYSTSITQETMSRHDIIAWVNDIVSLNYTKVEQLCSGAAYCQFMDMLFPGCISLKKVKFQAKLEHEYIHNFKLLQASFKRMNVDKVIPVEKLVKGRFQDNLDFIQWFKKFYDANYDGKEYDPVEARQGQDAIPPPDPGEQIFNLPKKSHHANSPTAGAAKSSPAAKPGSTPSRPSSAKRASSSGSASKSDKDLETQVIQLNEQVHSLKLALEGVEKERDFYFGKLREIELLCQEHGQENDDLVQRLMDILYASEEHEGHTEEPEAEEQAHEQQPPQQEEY

Row | Variant | effect of a mutation on the interaction
3 | Q428H | with no effect

Variants of: B3
Details: with ca094_human C1orf94, Q6P1W5

Row | Variant | effect of a mutation on the interaction
4 | V29A | with no effect

Variants of: B4
Details: with gstm3_human GSTM3, P21266

Row | Variant | effect of a mutation on the interaction
5 | L179P | with no effect
